The record followed here is patent US20210292422A1 (SURROZEN, published 2021).

The target of one assay is T1, FZD8 CRD (UniProt Q9H461 30-151).
T1 construct: domain: CRD
T1 sequence (looked up): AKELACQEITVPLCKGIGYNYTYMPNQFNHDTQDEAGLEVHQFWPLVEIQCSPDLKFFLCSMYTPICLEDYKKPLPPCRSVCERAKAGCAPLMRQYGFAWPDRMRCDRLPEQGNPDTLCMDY
Kind of assay: BLI (Octet), sequential: FZD8 CRD on sensor, tandem scFv, then LRP6 E3E4.

In assay [1] the target is T2, LRP6E3E4 (UniProt O75581 631-1246).
T2 construct: domain: E3E4
T2 sequence (looked up): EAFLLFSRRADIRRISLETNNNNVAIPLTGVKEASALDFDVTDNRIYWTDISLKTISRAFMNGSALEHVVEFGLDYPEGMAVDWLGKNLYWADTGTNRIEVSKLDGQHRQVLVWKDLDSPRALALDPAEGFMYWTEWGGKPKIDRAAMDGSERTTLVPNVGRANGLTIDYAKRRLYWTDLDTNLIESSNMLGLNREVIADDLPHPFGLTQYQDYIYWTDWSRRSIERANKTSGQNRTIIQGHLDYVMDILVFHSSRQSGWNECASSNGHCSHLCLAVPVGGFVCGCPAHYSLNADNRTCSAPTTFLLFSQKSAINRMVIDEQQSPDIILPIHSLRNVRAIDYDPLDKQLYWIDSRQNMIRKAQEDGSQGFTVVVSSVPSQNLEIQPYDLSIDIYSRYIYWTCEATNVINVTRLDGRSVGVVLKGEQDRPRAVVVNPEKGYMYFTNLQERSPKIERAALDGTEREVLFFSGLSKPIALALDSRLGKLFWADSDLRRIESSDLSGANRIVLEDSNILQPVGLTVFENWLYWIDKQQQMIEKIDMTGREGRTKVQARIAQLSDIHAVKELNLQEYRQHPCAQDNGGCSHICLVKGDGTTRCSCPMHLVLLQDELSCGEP
Described as above.

Assay [2] deals with T2, LRP6E3E4. Kind of assay: BLI (Octet), FIG. 12E.
A further assay addresses T3, LRP6E1E2 (UniProt O75581 20-630).
T3 construct: domain: E1E2; also called LRP6 E1E2 domains
T3 sequence (looked up): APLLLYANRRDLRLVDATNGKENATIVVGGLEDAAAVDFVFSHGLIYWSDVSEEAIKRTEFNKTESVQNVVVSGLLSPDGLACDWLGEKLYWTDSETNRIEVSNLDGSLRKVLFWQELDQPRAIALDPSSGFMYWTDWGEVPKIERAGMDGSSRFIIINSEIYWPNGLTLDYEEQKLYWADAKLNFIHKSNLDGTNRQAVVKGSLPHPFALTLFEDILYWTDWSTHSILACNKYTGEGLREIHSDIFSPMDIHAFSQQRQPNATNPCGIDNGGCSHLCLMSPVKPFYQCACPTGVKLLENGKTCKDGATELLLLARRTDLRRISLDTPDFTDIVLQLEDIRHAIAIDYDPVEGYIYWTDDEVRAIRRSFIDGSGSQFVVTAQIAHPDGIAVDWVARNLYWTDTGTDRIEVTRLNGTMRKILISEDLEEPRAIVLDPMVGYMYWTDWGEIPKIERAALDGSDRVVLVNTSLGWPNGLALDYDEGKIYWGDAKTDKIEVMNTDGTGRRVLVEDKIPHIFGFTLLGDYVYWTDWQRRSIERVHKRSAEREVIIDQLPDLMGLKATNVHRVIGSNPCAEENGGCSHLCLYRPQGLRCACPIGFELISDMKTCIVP
Kind of assay: BLI (Octet), FIG. 12E.

B1: L2:5:F3_His (bispecific antibody)
chain: EVQLVESGGGLVQPGGSLRLSCAASGFTFTSYYISWVRQAPGKGLEWVAEISPYSGSTYYADSVKGRFTISADTSKNTAYLQMNSLRAEDTAVYYCALRARPPIRLHPRGSVMDYWGQGTLVTVSSGSAASGSSGGSSSGADIQMTQSPSSLSASVGDRVTITCRASQDVSTAVAWYQQKPGKAPKLLIYSASFLYSGVPSRFSGSGSGTDFTLTISSLQPEDFATYYCQQSYTTPPTFGQGTKVEIKGSGSGEVQLVESGGGLVQPGGSLRLSCAASGFNISYSYIHWVRQAPGKGLEWVASIYSSSGSTSYADSVKGRFTISADTSKNTAYLQMNSLRAEDTAVYYCARGAIDYWGQGTLVTVSSGGGGSGGGGSGGGGSDIQMTQSPSSLSASVGDRVTITCRASQSVSSAVAWYQQKPGKAPKLLIYSASSLYSGVPSRFSGSRSGTDFTLTISSLQPEDFATYYCQQWYSSGHVLITFGQGTKVEIKGSGSGHHHHHH
notes: 1:1 tandem scFv
For B1, the binding result in the assay with FZD8 CRD and with LRP6E3E4 [1] was “binds” throughout.

B2: L2:5:αGFP:Fc (bispecific antibody)
chain: EVQLVESGGGLVQPGGSLRLSCAASGFTFTSYYISWVRQAPGKGLEWVAEISPYSGSTYYADSVKGRFTISADTSKNTAYLQMNSLRAEDTAVYYCALRARPPIRLHPRGSVMDYWGQGTLVTVSSGSAASGSSGGSSSGADIQMTQSPSSLSASVGDRVTITCRASQDVSTAVAWYQQKPGKAPKLLIYSASFLYSGVPSRFSGSGSGTDFTLTISSLQPEDFATYYCQQSYTTPPTFGQGTKVEIKGSGSGQVQLVESGGGLVQPGGSLRLSCAASGFTFSRYGMHWVRQAPGKGLEWVSGISSIGSNTYYADSVKGRFTISRDNSKNTLYLQMNSLRAEDTAVYYCARWYKTYIDVWGQGTLVTVSSGGGGSGGGGSGGGGSDIELTQPPSVSVAPGQTARISCSGDNLGKKYVYWYQQKPGQAPVLVIYGDDERPSGIPERFSGSNSGNTATLTISGTQAEDEADYYCASYDSSHILIVFGGGTKLTVLGSGSGDKTHTCPPCPAPEAAGGPSVFLFPPKPKDTLMISRTPEVTCVVVDVSHEDPEVKFNWYVDGVEVHNAKTKPREEQYNSTYRVVSVLTVLHQDWLNGKEYKCKVSNKALGAPIEKTISKAKGQPREPQVYTLPPSREEMTKNQVSLTCLVKGFYPSDIAVEWESNGQPENNYKTTPPVLDSDGSFFLYSKLTVDKSRWQQGNVFSCSVMHEALHNHYTQKSLSLSPGK
notes: 0FZD:2LRP control
For the molecule B2, the binding result in the assay with LRP6E3E4 [2] is given as “binds”.

B3: F3:5:L2_His (bispecific antibody)
chain: EVQLVESGGGLVQPGGSLRLSCAASGFNISYSYIHWVRQAPGKGLEWVASIYSSSGSTSYADSVKGRFTISADTSKNTAYLQMNSLRAEDTAVYYCARGAIDYWGQGTLVTVSSGGGGSGGGGSGGGGSDIQMTQSPSSLSASVGDRVTITCRASQSVSSAVAWYQQKPGKAPKLLIYSASSLYSGVPSRFSGSRSGTDFTLTISSLQPEDFATYYCQQWYSSGHVLITFGQGTKVEIKGSGSGEVQLVESGGGLVQPGGSLRLSCAASGFTFTSYYISWVRQAPGKGLEWVAEISPYSGSTYYADSVKGRFTISADTSKNTAYLQMNSLRAEDTAVYYCALRARPPIRLHPRGSVMDYWGQGTLVTVSSGSAASGSSGGSSSGADIQMTQSPSSLSASVGDRVTITCRASQDVSTAVAWYQQKPGKAPKLLIYSASFLYSGVPSRFSGSGSGTDFTLTISSLQPEDFATYYCQQSYTTPPTFGQGTKVEIKGSGSGHHHHHH
notes: 1:1 tandem scFv
Turning to B3, the binding result with FZD8 CRD and with LRP6E3E4 [1] was “binds” throughout.

B4: αGFP:5:L1:Fc (bispecific antibody)
chain: QVQLVESGGGLVQPGGSLRLSCAASGFTFSRYGMHWVRQAPGKGLEWVSGISSIGSNTYYADSVKGRFTISRDNSKNTLYLQMNSLRAEDTAVYYCARWYKTYIDVWGQGTLVTVSSGGGGSGGGGSGGGGSDIELTQPPSVSVAPGQTARISCSGDNLGKKYVYWYQQKPGQAPVLVIYGDDERPSGIPERFSGSNSGNTATLTISGTQAEDEADYYCASYDSSHILIVFGGGTKLTVLGSGSGDVKLVESGGGLVKLGGSLRLSCAASGFSFSTSYMSWVRQTPEKRLELVAAINLNGGSTYYSDTVKGRFTISRDNAKNTLYLQMSSLKSEDTAFYYCASELAGYGTPFAYWGQGTLVTVSAGSAASGSSGGSSSGADIVLTQSPATLSVTPGDSVSLSCKASQSISYNLHWYQQKSHESPRLLIKYTSQSISGIPSRFSGSGSGTDFTLTINNVETEDFGMYFCQQSNSWPLTFGAGTKLEVKGSGSGDKTHTCPPCPAPEAAGGPSVFLFPPKPKDTLMISRTPEVTCVVVDVSHEDPEVKFNWYVDGVEVHNAKTKPREEQYNSTYRVVSVLTVLHQDWLNGKEYKCKVSNKALGAPIEKTISKAKGQPREPQVYTLPPSREEMTKNQVSLTCLVKGFYPSDIAVEWESNGQPENNYKTTPPVLDSDGSFFLYSKLTVDKSRWQQGNVFSCSVMHEALHNHYTQKSLSLSPGK
notes: 0FZD:2LRP control
For B4, the binding result with LRP6E1E2 is given as “binds”.

B5: L1:5:αGFP:Fc (bispecific antibody)
chain: DVKLVESGGGLVKLGGSLRLSCAASGFSFSTSYMSWVRQTPEKRLELVAAINLNGGSTYYSDTVKGRFTISRDNAKNTLYLQMSSLKSEDTAFYYCASELAGYGTPFAYWGQGTLVTVSAGSAASGSSGGSSSGADIVLTQSPATLSVTPGDSVSLSCKASQSISYNLHWYQQKSHESPRLLIKYTSQSISGIPSRFSGSGSGTDFTLTINNVETEDFGMYFCQQSNSWPLTFGAGTKLEVKGSGSGQVQLVESGGGLVQPGGSLRLSCAASGFTFSRYGMHWVRQAPGKGLEWVSGISSIGSNTYYADSVKGRFTISRDNSKNTLYLQMNSLRAEDTAVYYCARWYKTYIDVWGQGTLVTVSSGGGGSGGGGSGGGGSDIELTQPPSVSVAPGQTARISCSGDNLGKKYVYWYQQKPGQAPVLVIYGDDERPSGIPERFSGSNSGNTATLTISGTQAEDEADYYCASYDSSHILIVFGGGTKLTVLGSGSGDKTHTCPPCPAPEAAGGPSVFLFPPKPKDTLMISRTPEVTCVVVDVSHEDPEVKFNWYVDGVEVHNAKTKPREEQYNSTYRVVSVLTVLHQDWLNGKEYKCKVSNKALGAPIEKTISKAKGQPREPQVYTLPPSREEMTKNQVSLTCLVKGFYPSDIAVEWESNGQPENNYKTTPPVLDSDGSFFLYSKLTVDKSRWQQGNVFSCSVMHEALHNHYTQKSLSLSPGK
notes: 0FZD:2LRP control
B5: in the assay with LRP6E1E2, the binding result is “binds”.

B6: αGFP:5:L2:Fc (bispecific antibody)
chain: QVQLVESGGGLVQPGGSLRLSCAASGFTFSRYGMHWVRQAPGKGLEWVSGISSIGSNTYYADSVKGRFTISRDNSKNTLYLQMNSLRAEDTAVYYCARWYKTYIDVWGQGTLVTVSSGGGGSGGGGSGGGGSDIELTQPPSVSVAPGQTARISCSGDNLGKKYVYWYQQKPGQAPVLVIYGDDERPSGIPERFSGSNSGNTATLTISGTQAEDEADYYCASYDSSHILIVFGGGTKLTVLGSGSGEVQLVESGGGLVQPGGSLRLSCAASGFTFTSYYISWVRQAPGKGLEWVAEISPYSGSTYYADSVKGRFTISADTSKNTAYLQMNSLRAEDTAVYYCALRARPPIRLHPRGSVMDYWGQGTLVTVSSGSAASGSSGGSSSGADIQMTQSPSSLSASVGDRVTITCRASQDVSTAVAWYQQKPGKAPKLLIYSASFLYSGVPSRFSGSGSGTDFTLTISSLQPEDFATYYCQQSYTTPPTFGQGTKVEIKGSGSGDKTHTCPPCPAPEAAGGPSVFLFPPKPKDTLMISRTPEVTCVVVDVSHEDPEVKFNWYVDGVEVHNAKTKPREEQYNSTYRVVSVLTVLHQDWLNGKEYKCKVSNKALGAPIEKTISKAKGQPREPQVYTLPPSREEMTKNQVSLTCLVKGFYPSDIAVEWESNGQPENNYKTTPPVLDSDGSFFLYSKLTVDKSRWQQGNVFSCSVMHEALHNHYTQKSLSLSPGK
notes: 0FZD:2LRP control
Take B6: the binding result with LRP6E3E4 [2] is “binds”.
